Measured values taken from paper PMC4567411 (Nature, 2015).

B1: biotin-MYC3(5-242) (domain or fragment, Arabidopsis, UniProt Q9FIP9 5-242, looked up)
chain: TSSINFLTSDDDASAAAMEAFIGTNHHSSLFPPPPQQPPQPQFNEDTLQQRLQALIESAGENWTYAIFWQISHDFDSSTGDNTVILGWGDGYYKGEEDKEKKKNNTNTAEQEHRKRVIRELNSLISGGIGVSDESNDEEVTDTEWFFLVSMTQSFVNGVGLPGESFLNSRVIWLSGSGALTGSGCERAGQGQIYGLKTMVCIATQNGVVELGSSEVISQSSDLMHKVNNLFNFNNGGG
modifications: biotin (site not stated)
B3: biotin-MYC3(44-238) (domain or fragment, Arabidopsis, UniProt Q9FIP9 44-238, looked up)
chain: QPQFNEDTLQQRLQALIESAGENWTYAIFWQISHDFDSSTGDNTVILGWGDGYYKGEEDKEKKKNNTNTAEQEHRKRVIRELNSLISGGIGVSDESNDEEVTDTEWFFLVSMTQSFVNGVGLPGESFLNSRVIWLSGSGALTGSGCERAGQGQIYGLKTMVCIATQNGVVELGSSEVISQSSDLMHKVNNLFNFN
modifications: biotin (site not stated)

Key:
Assay in all cases: AlphaScreen or HTRF
biotin-MYC3(44-238) [1] = biological target: B3
biotin-MYC3(5-242) = biological target: B1
His6Sumo-MED25(407-680) = biological target: T1, His6Sumo-MED25(407-680) (Arabidopsis, UniProt Q7XYY2 407-680)
T1 sequence (looked up): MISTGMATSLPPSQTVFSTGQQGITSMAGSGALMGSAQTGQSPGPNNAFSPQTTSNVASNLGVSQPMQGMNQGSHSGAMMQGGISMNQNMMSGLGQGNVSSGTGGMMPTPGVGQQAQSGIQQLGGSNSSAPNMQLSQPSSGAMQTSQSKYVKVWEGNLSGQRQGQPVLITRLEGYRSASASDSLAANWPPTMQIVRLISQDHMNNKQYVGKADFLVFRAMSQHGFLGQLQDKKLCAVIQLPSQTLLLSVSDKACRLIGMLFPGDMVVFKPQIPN

biotin-MYC3(44-238) [2] = biological target: B3; remark: listed apart in the source

Binder: SVPQARKASLARFLEKRKERLM (peptide, UniProt Q8W4J8 218-239, looked up) [Jas22^JAZ9 peptide]
- IC50 (biotin-MYC3(44-238) [1]): ~420 nM
- IC50 (biotin-MYC3(5-242)): ~490 nM

Binder: B1
- binding result (His6Sumo-MED25(407-680)): binds

B2: His6Sumo-MED25(540-680) (domain or fragment, Arabidopsis, UniProt Q7XYY2 540-680, looked up)
chain: QLSQPSSGAMQTSQSKYVKVWEGNLSGQRQGQPVLITRLEGYRSASASDSLAANWPPTMQIVRLISQDHMNNKQYVGKADFLVFRAMSQHGFLGQLQDKKLCAVIQLPSQTLLLSVSDKACRLIGMLFPGDMVVFKPQIPN
- binding result (biotin-MYC3(44-238) [2]): binds

Binder: B3
- binding result (His6Sumo-MED25(407-680)): binds
